Measurements reported in publication PMC5503242.

Columns and labels:
[1] = biological target: ClC-ec1, E. coli ClC protein (E. coli) (UniProt P37019); experiment: SEC; purified ClC-ec1, apparent mass around 150 kDa with associated detergent
[2] = biological target: ClC-rm1, ClC protein of Ralstonia metallidurans (WP_011515329), with C-terminal 6x(His) tag (Ralstonia metallidurans); experiment: SEC; Superose 6 or Superdex 200, 0.03% (w/v) DDM, 150 mM NaCl, 5 mM KCl, 20 mM Tris-HCl pH 8.0; also after exchange to DM, OG or amphipol A8-35
[3] = biological target: ClC-rm1, ClC protein of Ralstonia metallidurans (WP_011515329), with C-terminal 6x(His) tag (Ralstonia metallidurans); experiment: SDS-PAGE (dimer resistant to denaturation); NUPAGE 4-12% Bis-Tris gel of ClC-rm1 eluted from Ni2+ resin or after SEC; Western blot with His tag antibody
[4] = biological target: ClC-rm1_eGFP, ClC-rm1 with eGFP and a 10x(His) tag at the C-terminus (Ralstonia metallidurans); experiment: SEC; Superose 6 or Superdex 200, 0.03% (w/v) DDM, 150 mM NaCl, 5 mM KCl, 20 mM Tris-HCl pH 8.0; also after exchange to DM, OG or amphipol A8-35

ClC-ec1, E. coli ClC protein (from UniProt P37019 1-473) (natural protein)
stoichiometry N [1]: 2

ClC-rm1, ClC protein of Ralstonia metallidurans (WP_011515329), with C-terminal 6x(His) tag (natural protein)
stoichiometry N [2]: 2 | stoichiometry N [3]: 2

ClC-rm1_eGFP, ClC-rm1 with eGFP and a 10x(His) tag at the C-terminus (natural protein)
stoichiometry N [4]: 2
